Results taken from paper PMC11218540, “Influence of PepF peptidase and sporulation on microcin J25 production in Bacillus subtilis” (Microbiology Spectrum, 2024).
Bridges are numbered along the chain shown (N, C = ends). Where no end group is shown, it is not given here.

Experiments:
PepF = molecular target: T1, PepF (Bacillus subtilis, UniProt O31605); conditions: mature lasso peptide incubated with purified PepF 8 hours at 37°C, compared with non-peptidase-treated
T1 sequence (O31605 whole entry, looked up): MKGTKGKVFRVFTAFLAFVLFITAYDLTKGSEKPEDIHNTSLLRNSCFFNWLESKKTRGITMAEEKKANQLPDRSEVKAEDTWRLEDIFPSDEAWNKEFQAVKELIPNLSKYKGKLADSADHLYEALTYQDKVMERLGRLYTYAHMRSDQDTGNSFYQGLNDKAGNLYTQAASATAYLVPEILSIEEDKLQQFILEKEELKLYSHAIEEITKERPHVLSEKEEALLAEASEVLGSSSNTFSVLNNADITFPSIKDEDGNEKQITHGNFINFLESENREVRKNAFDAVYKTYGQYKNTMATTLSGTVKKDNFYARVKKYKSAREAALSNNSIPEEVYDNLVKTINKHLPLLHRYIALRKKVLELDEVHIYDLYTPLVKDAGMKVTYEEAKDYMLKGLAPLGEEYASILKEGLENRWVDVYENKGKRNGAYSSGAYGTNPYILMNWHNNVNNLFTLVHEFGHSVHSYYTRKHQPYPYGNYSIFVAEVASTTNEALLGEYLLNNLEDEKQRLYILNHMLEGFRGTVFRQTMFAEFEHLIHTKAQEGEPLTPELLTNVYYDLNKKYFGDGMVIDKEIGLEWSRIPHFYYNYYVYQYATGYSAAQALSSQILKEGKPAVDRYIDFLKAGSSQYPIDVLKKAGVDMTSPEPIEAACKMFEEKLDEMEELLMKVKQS
Procedure: (§1) To examine the degradation effect of these three peptidases on the lasso peptide MccJ25, we performed the enzymatic (proteolytic treatment) reaction of MccJ25 with each peptidase enzyme for 8 hours at 37°C and measured the antibacterial activity and concentration of MccJ25 in the incubation products.
(§2) To investigate whether B. subtilis peptidases play an inhibitory role in the maturation of MccJ25, we synthesized a linear peptide chain consisting of 21 amino acid residues for mimicking the MccJ25 precursor peptide. The linear peptide was incubated with PepA, PepF, and PepT, and the effects of degradation of these three peptidases on the MccJ25 precursor peptide were determined.
(§3) The MccJ25 lasso peptide was obtained by a reverse-phase solid-phase extraction method, as described in previous studies ([15]). The MccJ25 lasso peptide was examined by antimicrobial activity analysis and UPLC-QqQ mass spectrometry analysis. The antibacterial activity analysis method and UPLC-QqQ mass spectrometry analysis process for MccJ25 have been described in detail in our previous articles ([21]). […] Quantitative analysis of the MccJ25 linear/lasso peptide was performed by ultra-performance liquid chromatography coupled with triple quadrupole mass spectrometry (UPLC-QqQ, Agilent Co., USA) in the positive ion mode. All original images of SDS-PAGE and spot-on-lawn were cropped and brightness adjusted using Fireworks software (Vesion CS 6, Adobe Systems Incorporated).
(§4) The strains BL21A (BL21-DE3, pET28a-PepA), BL21F (BL21-DE3, pET28a-PepF), and BL21T (BL21-DE3, pET28a-PepT) were used to produce the peptidases PepA, PepF, and PepT, respectively, and BL21O (BL21-DE3, pET28a+) was used as a control strain. […] L-leucine-p-nitroanilide was used as the standard chromogenic substrate for aminopeptidases to identify whether these three peptidases are aminopeptidases in B. subtilis. The mixture of peptidase (10%) and L-leucine-p- nitroanilide (1 mM) was reacted in Tris-HCl buffer solution at pH = 8.5 and 50°C for 10 minutes.

PepT = PepT (Bacillus subtilis, UniProt P55179); conditions: 8 hours at 37°C, data not shown
Procedure: as §1, §2, §3, §4

PepA = PepA (Bacillus subtilis, UniProt O32106); conditions: 8 hours at 37°C, data not shown
Procedure: as §1, §2, §3, §4

[1] = at the highest concentration required to inhibit bacterial growth; cited from earlier work
Text: Microcins are antimicrobial peptides synthesized by ribosomes and are produced by some Enterobacteriaceae species under the condition of nutrient depletion to kill or inhibit neighboring competitors ([1], [2]). Microcins are divided into two categories, namely, class I and class II, according to their molecular masses. Class I microcins have mass less than 5 kDa, while that of class II microcins is between 5 and 10 kDa ([1]). Microcin J25 (MccJ25) is a class I microcin with a unique lasso-like structure ([3][–][5]) that inhibits or kills target bacteria (primarily Gram-negative Enterobacteriac ...

[2] = system: proteases (including peptidases); conditions: cited from earlier work
Text: Peptidases are important tools in the growth and metabolism of various organisms, including B. subtilis, and they are classified as exopeptidases and endopeptidases depending on the position of peptide bond cleavage ([22]). Different classes of peptidases are associated with important biological pathways. Based on similarity, PepA (yuiE) is predicted to be an aminopeptidase in B. subtilis, but its exact function has not been studied. In E. coli, PepA is a well-defined leucyl aminopeptidase with cysteinyl–glycinase activity, which involves glutathione turnover ([23]). Since glutathione is absen ...

[3] = spot-on-lawn assay, S. enteritidis CVCC3377

PepA, sequence (O32106 whole entry): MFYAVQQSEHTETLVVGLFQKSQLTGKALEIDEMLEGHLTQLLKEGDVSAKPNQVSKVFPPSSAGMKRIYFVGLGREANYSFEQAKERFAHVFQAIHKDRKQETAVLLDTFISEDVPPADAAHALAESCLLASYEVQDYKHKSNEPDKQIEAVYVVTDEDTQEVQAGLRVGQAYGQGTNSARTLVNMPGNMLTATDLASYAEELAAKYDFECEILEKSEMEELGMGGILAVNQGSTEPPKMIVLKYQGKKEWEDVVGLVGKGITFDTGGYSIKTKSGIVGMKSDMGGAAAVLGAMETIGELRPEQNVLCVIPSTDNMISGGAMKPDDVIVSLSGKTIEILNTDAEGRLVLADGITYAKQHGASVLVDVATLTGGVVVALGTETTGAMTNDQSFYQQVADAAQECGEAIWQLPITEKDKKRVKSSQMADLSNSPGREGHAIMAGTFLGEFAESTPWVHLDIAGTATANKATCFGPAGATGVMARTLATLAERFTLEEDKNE
PepT, sequence (P55179 whole entry): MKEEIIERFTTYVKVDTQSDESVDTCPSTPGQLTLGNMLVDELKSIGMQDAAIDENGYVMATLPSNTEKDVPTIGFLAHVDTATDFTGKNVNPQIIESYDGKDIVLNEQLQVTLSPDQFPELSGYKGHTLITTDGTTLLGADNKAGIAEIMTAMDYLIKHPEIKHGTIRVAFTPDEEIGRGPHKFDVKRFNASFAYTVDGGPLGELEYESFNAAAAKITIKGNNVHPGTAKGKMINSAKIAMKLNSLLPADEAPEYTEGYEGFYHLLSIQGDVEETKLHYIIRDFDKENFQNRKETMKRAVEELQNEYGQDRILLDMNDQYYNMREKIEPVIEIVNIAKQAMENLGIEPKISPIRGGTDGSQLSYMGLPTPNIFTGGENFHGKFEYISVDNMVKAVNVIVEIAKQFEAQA

microcin J25 (GGAGHVPEYFVGIGTPISFYG; lactam N-8 (inferred); UniProt Q9X2V7 38-58, looked up) [MccJ25, lasso peptide, class I microcin of 21 amino acid residues: eight-residue cycle and thirteen-residue tail threading through the macrolactam ring]
concentration of MccJ25 after treatment with PepF (PepF; UPLC-QqQ-MS): unchanged | antibacterial activity of MccJ25 after treatment with PepF (PepF; spot-on-lawn assay, indicator S. enteritidis CVCC3377): unchanged | concentration of mature MccJ25 after treatment with PepT (PepT; UPLC-QqQ-MS): remained unchanged | antibacterial activity of mature MccJ25 after treatment with PepT (PepT; [3]): remained unchanged | concentration of mature MccJ25 after treatment with PepA (PepA; UPLC-QqQ-MS): remained unchanged | antibacterial activity of mature MccJ25 after treatment with PepA (PepA; [3]): remained unchanged | toxicity and hemolysis [1]: neither toxic nor hemolytic | resistance to proteases (including peptidases) [2]: high resistance
